Like-named read-outs stand apart in the source and are kept apart here.
Legend:
[1] = biological target: Streptococcus pyogenes enolase, wild type (WT-Sen) (Streptococcus pyogenes (Group A, isolate AP53)); assay: AUC
[2] = biological target: Streptococcus pyogenes enolase, wild type (WT-Sen) (Streptococcus pyogenes (Group A, isolate AP53)); assay: AUC; remark: listed apart in the source
[3] = biological target: Streptococcus pyogenes enolase, wild type (WT-Sen) (Streptococcus pyogenes (Group A, isolate AP53)); assay: cryo-EM structure
[4] = biological target: DOPG/Sen (the Sen variants of Figure 5A-D on DOPG vesicles); assay: flow cytometry of phospholipid vesicles

Sequence of Streptococcus pyogenes enolase, wild type (WT-Sen) (enzyme) (A2RFE3 whole entry): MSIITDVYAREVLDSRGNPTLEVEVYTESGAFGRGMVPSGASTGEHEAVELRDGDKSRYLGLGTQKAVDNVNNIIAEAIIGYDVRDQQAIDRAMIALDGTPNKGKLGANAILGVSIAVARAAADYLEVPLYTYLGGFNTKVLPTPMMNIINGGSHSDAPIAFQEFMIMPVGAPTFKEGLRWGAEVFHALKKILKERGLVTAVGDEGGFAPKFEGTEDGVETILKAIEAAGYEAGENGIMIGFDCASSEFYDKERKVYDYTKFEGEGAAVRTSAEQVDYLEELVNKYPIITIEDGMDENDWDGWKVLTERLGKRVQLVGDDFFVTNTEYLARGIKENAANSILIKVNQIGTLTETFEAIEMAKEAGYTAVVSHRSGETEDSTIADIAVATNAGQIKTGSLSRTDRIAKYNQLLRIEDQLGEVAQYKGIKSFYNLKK

| percent of vesicles in the gate that defines DOPG/Sen bound to hPg [4] [%] | Substance | percent as octamer [1] [%] | stoichiometry N [1] | percent as octamer [2] [%] | stoichiometry N [2] | stoichiometry N [3] |
| --- | --- | --- | --- | --- | --- | --- |
|  | Streptococcus pyogenes enolase, wild type (WT-Sen) (enzyme) | > 95 | 8 | > 95 | 8 | 8 |
| 83 to 93 | human plasminogen (hPg) (natural protein) |  |  |  |  |  |

Reference: doi:10.1101/2022.12.06.518574
